Measured values as given in patent publication US20130064790A1 (PROYECTO DE BIOMEDICINA CIMA S L, published 2013).

B1: peptide P9 (1-13; 1 Ser) (SEQ ID NO: 53) (peptide)
peptide: SHRCFHFRRHPVA
notes: Amino acids 1-13 of P9 with Cys 1 replaced by Ser

The binders below were run against T1, human IL-10 (hIL-10) (human, UniProt P22301 19-178) (assay: SPR (BIAcore X), human IL-10 immobilized on CM5 chip, peptide 10 µM injected).
T1 construct: also called human recombinant protein IL-10 (R & D Systems, cat No. 217-IL/CF); hIL-10 (e-Bioscience)
T1 sequence (P22301 19-178 limits assumed): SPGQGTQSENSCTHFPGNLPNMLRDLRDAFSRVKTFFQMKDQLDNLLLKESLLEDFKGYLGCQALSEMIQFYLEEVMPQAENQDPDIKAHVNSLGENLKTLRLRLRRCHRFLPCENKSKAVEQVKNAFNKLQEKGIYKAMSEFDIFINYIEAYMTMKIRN
Procedure: To perform this assay, the Biosensor BIAcore X (BIAcore, AB, Uppsala, Sweden) was used. Briefly, human recombinant protein IL-10 (R & D Systems, cat No. 217-IL/CF) was covalently immobilized on the surface of flow cell 2 (FC2) of a CM5 chip (BIAcore), as described in De Crescenzo et al. 2001 (JBC, Vol 276; 29632-29643). Flow cell 1 (FC1), on the surface of which IL-10 is not immobilized, was used as a reference flow cell. The peptide solutions (10 μM) were injected at least twice in 10 mM Hepes buffer, pH 7.4, 150 mM NaCl, 0.005% Tween 20 (Polyoxyethylene Sorbitan Monolaurate) at a flow of 30 μl/min. The binding curves were processed by means of subtracting the response in FC1 from that obtained in FC2. The response in equilibrium was compared between the test peptide and an irrelevant control peptide of the same length. The control peptide used was peptide P301 (SEQ ID NO: 54) (derived from the HIV-1 coat, gp120 (301-315): […]). Each response was multiplied by a mass correction factor: MW(PX)/MW(P), where MW(PX) is the molecular weight of the test peptide P and MW(P) is the molecular weight of the control peptide (P301).

Binder	binding result
HRCFHFRRHPVAVF (Amino acids 2-15 of P9) [peptide P9 (2-15) (SEQ ID NO: 45)]	binds
CHRCFHFRRHPVAV (Amino acids 1-14 of P9) [peptide P9 (1-14) (SEQ ID NO: 46)]	binds
CHRCFHFRRHPVA (Amino acids 1-13 of P9) [peptide P9 (1-13) (SEQ ID NO: 47)]	binds
B1	binds
HRCFHFRRHPVAV (Amino acids 2-14 of P9) [peptide P9 (2-14) (SEQ ID NO: 48)]	binds
HRCFHFRRHPVA (Amino acids 2-13 of P9) [peptide P9 (2-13) (SEQ ID NO: 49)]	binds
RCFHFRRHPVAV (Amino acids 3-14 of P9) [peptide P9 (3-14) (SEQ ID NO: 50)]	binds
CHRCFHFRRHPVAAF (P9 with Val 14 replaced by Ala) [peptide P9 (14 Ala) (SEQ ID NO: 52)]	binds
CHRCFHFRRHPVAVA (P9 with Phe 15 replaced by Ala) [peptide P9 (15 Ala) (SEQ ID NO: 51)]	binds

These binders were tested against biotinylated IL-10 (Homo sapiens (Human)) (UniProt P22301) (assay: phage display biopanning, 3 rounds on biotinylated IL-10 on streptavidin plates; clones sequenced).
Chain of biotinylated IL-10 (Homo sapiens (Human)) (P22301 19-178 limits assumed, form in doubt): as the sequence (P22301 19-178 limits assumed) above

Binder	No. of colonies [colonies]
RKLRPHWLHFHPVAV [peptide P1 (SEQ ID NO: 1)]	25
ARWMHRHHGWSDRHR [peptide P2 (SEQ ID NO: 2)]	29
